According to the supplement of paper PMC7125110:
± gives the standard error. For some assays here: Fewer inactive variants are shown than the library holds.

B1: glmS ribozyme (parent)
chain: AUAAAAGCGCCAGAACUACAGAAAUGUAGUUGACGAGGAGGAGGUUUAUCGAAUUUUCGGCGGAUGCCUCCAAA

Assays:
Details in all cases: with glucosamine-6-phosphate
glucosamine-6-phosphate [1] = variants of: B1; assay: self-cleavage kobs at 40 uM GlcN6P; higher = faster cleavage; RNA array
Outline: (§1)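 Over ~14 h at 37 °C, tiles were imaged as glucosamine-6-phosphate (40 μM to 10 mM) in HEPES/KCl/Mg(OAc)2 buffer flowed across sequenced MiSeq chips. The chips carried barcoded ribozyme variants transcribed in situ by E. coli RNA polymerase and tracked with a hybridised Cy3 probe. After normalisation to baseline and to non-cleaving reference variants, one- or two-exponential decay fits of per-tile medians gave kobs. kcat and KM followed from weighted Michaelis–Menten fits across concentrations.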

glucosamine-6-phosphate [2] = variants of: B1; assay: kcat; higher = faster cleavage; RNA array
Outline: as §1

glucosamine-6-phosphate [3] = variants of: B1; assay: self-cleavage kobs at 2500 uM GlcN6P; higher = faster cleavage; RNA array
Outline: as §1

glucosamine-6-phosphate [4] = variants of: B1; assay: self-cleavage kobs at 10000 uM GlcN6P; higher = faster cleavage; RNA array
Outline: as §1

glucosamine-6-phosphate [5] = variants of: B1; assay: KM; higher = weaker cofactor use; RNA array
Outline: as §1

glucosamine-6-phosphate [6] = variants of: B1; assay: self-cleavage kobs at 160 uM GlcN6P; higher = faster cleavage; RNA array
Outline: as §1

glucosamine-6-phosphate [7] = variants of: B1; assay: self-cleavage kobs at 640 uM GlcN6P; higher = faster cleavage; RNA array
Outline: as §1

| Variant | self-cleavage kobs at 40 uM GlcN6P (glucosamine-6-phosphate [1]) [s⁻¹] | kcat (glucosamine-6-phosphate [2]) [s⁻¹] | self-cleavage kobs at 2500 uM GlcN6P (glucosamine-6-phosphate [3]) [s⁻¹] | self-cleavage kobs at 10000 uM GlcN6P (glucosamine-6-phosphate [4]) [s⁻¹] | KM (glucosamine-6-phosphate [5]) [µM] | self-cleavage kobs at 160 uM GlcN6P (glucosamine-6-phosphate [6]) [s⁻¹] | self-cleavage kobs at 640 uM GlcN6P (glucosamine-6-phosphate [7]) [s⁻¹] |
| --- | --- | --- | --- | --- | --- | --- | --- |
| A1U U2G A3G A5U A6C G7C C8A G29C G32U G60U | < 1e-05 |  |  |  |  |  |  |
| U65C C71G | < 1e-05 | 4.3e-05 ± 1.5e-05 | 8.15e-05 ± 1.6e-05 | 3.44e-05 ± 8.1e-06 |  |  |  |
| G7A C16A |  |  |  |  | 275 ± 120 |  |  |
| A36C G51U |  |  |  |  | 10.4 ± 3.3 |  |  |
| C58G C70U |  | 5.2e-05 ± 3.9e-06 | 5.21e-05 ± 7e-06 | 4.8e-05 ± 7.6e-06 | 230 ± 110 | 2.43e-05 ± 1.1e-05 | 3.07e-05 ± 1.1e-05 |
| C58G C70G |  | 5.46e-05 ± 1.6e-05 | 5.92e-05 ± 1.4e-05 |  |  | 4.69e-05 ± 1.8e-05 | 7.73e-05 ± 2e-05 |
| G66A C68A |  | 0.000285 ± 7.9e-05 | 0.000313 ± 5.4e-05 | 0.000216 ± 4.2e-05 |  |  | 0.000138 ± 2.7e-05 |
| A1G C34U A52U | < 1e-05 |  |  |  |  |  |  |
| A6C A33U | < 1e-05 |  | < 1e-05 | < 1e-05 |  |  | < 1e-05 |
| A6C A52G A53G | < 1e-05 |  |  |  |  |  |  |
| C70U C71U | 3.19e-05 ± 5.6e-06 | 0.00193 ± 0.00073 | 0.000753 ± 0.00013 | 0.00146 ± 0.00021 | 4150 ± 1900 | 8.1e-05 ± 8.1e-06 | 0.000229 ± 1.8e-05 |
| U47A A64G | 0.000468 ± 8.5e-05 |  | 0.00614 ± 0.0013 | 0.0238 ± 0.0074 | 787 ± 380 | 0.00141 ± 0.00037 | 0.00552 ± 0.0012 |
| C68U C71U |  | 0.000142 ± 7.2e-06 | 0.000103 ± 7.4e-06 | 0.000123 ± 6.6e-06 | 1240 ± 180 |  | 4.62e-05 ± 4.3e-06 |
| C68U C71A |  | 1.12e-05 ± 6.7e-07 |  |  |  |  |  |
| A6C A15G U45G | < 1e-05 |  |  |  |  | < 1e-05 |  |
| U69C C70A |  | 5.97e-05 ± 1.3e-05 | 4.46e-05 ± 2.2e-05 | 5.64e-05 ± 1.2e-05 |  |  | 7.51e-05 ± 2e-05 |
| G60A C67G |  | 1.56e-05 ± 2e-06 |  |  |  |  |  |
| C58G U65G |  | < 1e-05 |  |  |  |  |  |

| Variant | self-cleavage kobs at 40 uM GlcN6P (glucosamine-6-phosphate [1]) [s⁻¹] | kcat (glucosamine-6-phosphate [2]) [s⁻¹] | self-cleavage kobs at 2500 uM GlcN6P (glucosamine-6-phosphate [3]) [s⁻¹] | self-cleavage kobs at 10000 uM GlcN6P (glucosamine-6-phosphate [4]) [s⁻¹] | KM (glucosamine-6-phosphate [5]) [µM] | self-cleavage kobs at 160 uM GlcN6P (glucosamine-6-phosphate [6]) [s⁻¹] | self-cleavage kobs at 640 uM GlcN6P (glucosamine-6-phosphate [7]) [s⁻¹] |
| --- | --- | --- | --- | --- | --- | --- | --- |
| C61A C71G |  | 1.3e-05 ± 2.8e-06 |  |  |  |  |  |
| G29U G51U |  |  |  |  | 40.3 ± 12 |  |  |
| G59A C71A | < 1e-05 | < 1e-05 |  |  |  |  |  |
| G59A C71G | < 1e-05 | < 1e-05 |  |  |  |  |  |
| A6C A12U A42U | < 1e-05 |  |  | < 1e-05 |  |  | < 1e-05 |
| U69G C71U |  | 4.96e-05 ± 1.4e-05 | 6.25e-05 ± 1.2e-05 | 3.11e-05 ± 9.4e-06 |  | 7.88e-05 ± 2.1e-05 | 9.65e-05 ± 2.5e-05 |
| G59U C68A |  | 2.28e-05 ± 4.9e-06 |  |  |  |  |  |
| U65A C67U | 7.1e-05 ± 8.1e-06 | 0.00212 ± 0.00035 | 0.00117 ± 0.00013 | 0.00225 ± 0.00023 | 1260 ± 320 | 0.00022 ± 2.8e-05 | 0.000793 ± 8.5e-05 |
| U65A C67G | 2.9e-05 ± 8.7e-06 | 0.000463 ± 7.8e-05 | 0.000422 ± 6.2e-05 | 0.000386 ± 6.4e-05 | 958 ± 270 | 6.44e-05 ± 9.1e-06 | 0.000173 ± 2.2e-05 |
| unchanged | 0.00143 ± 1.7e-05 | 0.0712 ± 0.0079 | 0.0364 ± 0.0015 | 0.0644 ± 0.0021 | 1990 ± 250 | 0.00462 ± 0.00025 | 0.016 ± 0.00046 |
| C67A C68G |  | 4.23e-05 ± 1e-05 | 5.59e-05 ± 1.3e-05 | 2.51e-05 ± 1.1e-05 |  | 4.13e-05 ± 1.5e-05 | 5.98e-05 ± 1.7e-05 |
| C67A C68U |  | 0.000125 ± 1.7e-05 | 0.000126 ± 9.8e-06 | 0.000106 ± 1e-05 | 497 ± 200 | 3.25e-05 ± 7.3e-06 | 6.61e-05 ± 5.3e-06 |
| U65A C71U | 0.000139 ± 2.2e-05 | 0.00196 ± 0.00076 | 0.0011 ± 0.0002 | 0.00301 ± 0.00053 |  | 0.000277 ± 4.1e-05 | 0.00117 ± 0.00012 |
| U65C C67A |  | 0.000111 ± 9.5e-06 | 7.82e-05 ± 2.1e-05 | 0.000106 ± 1.6e-05 | 672 ± 220 |  | 6e-05 ± 1.4e-05 |
| C68G C70A | < 1e-05 | < 1e-05 |  | < 1e-05 |  |  |  |
| G60A | < 1e-05 | 2.13e-05 ± 1.7e-06 | 2.19e-05 ± 2.6e-06 | 1.98e-05 ± 1.2e-06 |  |  | < 1e-05 |
| U65G C71U | 5.93e-05 ± 7e-06 | 0.00415 ± 0.00046 | 0.00232 ± 0.00055 | 0.00316 ± 0.00037 | 2960 ± 430 | 0.000189 ± 3.4e-05 | 0.000688 ± 0.00013 |
| U65G C71G | 2.64e-05 ± 9.6e-06 | 0.001 ± 0.00022 | 0.000413 ± 4.9e-05 | 0.000734 ± 0.00013 | 3670 ± 1100 | 4.2e-05 ± 1e-05 | 0.000145 ± 1.5e-05 |
